Three substances from publication PMC4028264 can be followed below.

Holding throughout (test): native gel or EMSA
In general terms: In EMSA bound probe runs differently from free probe, usually more slowly.

Test [1] addresses HIV-1 strain R2 gp140 fused to a modified GCN4 trimerization domain (HIV-1 strain R2 | not stated).
Test [2] concerns the target HIV-1 strain R2 gp140 with a 15 amino acid flexible linker between gp120 and the gp41 ectodomain, fu (HIV-1 strain R2 | not stated).
Test [3] addresses HIV-1 strain R2 soluble gp140 envelope glycoprotein (uncleaved) (HIV-1 strain R2).

The term stoichiometry N denotes a count of units in the complex or per binding partner. “HIV-1 strain R2 gp140 fused to a modified GCN4 trimerization domain (domain or fragment)” gave a stoichiometry N in test [1] of 3. In test [2], “HIV-1 strain R2 gp140 with a 15 amino acid flexible linker between gp120 and the gp41 ectodomain, fu (domain or fragment)” had a stoichiometry N of 3. In test [3], “HIV-1 strain R2 soluble gp140 envelope glycoprotein (uncleaved) (domain or fragment)” displayed a percent dimer of over 90% and a stoichiometry N of 2.
